How the values were obtained:
[1] = tested on: MLO-Y4 (murine long bone osteocyte-Y4) cell line; test: Sclerostin mRNA expression in MLO-Y4 cells; format: cell-based, mouse; settings: for sclerostin expression levels: 150 nM, 24 h
Protocol: FIG. 11. […] The cells were incubated with FreeStyle293 medium for 4 hr and treated for 16 hr with indicated concentrations of RUCILP2 or irisin (Upper panel), with the addition at pretreatment with vehicle (phosphate-buffered saline) or 10 μM of integrin inhibitor cRGDyK for 10 min (Lower panel). Data are represented as mean±SEM, n=3 wells/group. Significant differences between two groups were evaluated using a two-tailed, unpaired Student's t test. Upper panel, *, p<0.05, **, p<0.01, #, p<0.05, ##, p<0.01, when compared with the blank group. Lower panel, *, p<0.05, when compared with the vehicle group.
MLO-Y4 cells were donated by Prof Moustapha Kassem from the University of Southern Denmark. The cells were seeded on type I collagen-coated 6-well plates under Minimum Essential Medium (α-MEM from Fisher Scientific, #15430584), supplemented with 2.5% Fetal Bovine Serum (FBS from Fisher Scientific, #11550356), 2.5% calf serum (Hyclone, SH30072.03), and 1% Penicillin-Streptomycin (Fisher Scientific, #11548876). Cell cultures were maintained in a humidified chamber with 5% CO2 at 37° C., and culture media were changed every 2-3 days.
At 60% confluence, medium was switched to FreeStyle293 Expression medium after washing with warm PBS. After 4 hours incubation, the cells were treated with recombinant RUCILP2 or commercial recombinant irisin (Sigma, #SRP8039-10UG and Phoenix pharmaceuticals, #067-29A) or saline for 24 h. For integrin inhibitor treatment, cells were treated with 10 μM of CycloRGDyK (Selleckchem, #S7844) for 10 minutes and washed with PBS before treated with recombinant RUCILP2 or commercial recombinant irisin or saline. After treatments, MLO-Y4 cells were harvested for qRT-PCR analysis of the mRNA level of sclerostin as described in gene expression analysis. […]

mouse 3T3-L1 fibroblasts = test: Gene expression in 3T3-L1 fibroblasts (q-PCR); format: cell-based; settings: dose-response
Protocol: 3T3-L1 cells (a murine fibroblast cell line) were split onto 12-well plates and grown to confluence before inducing differentiation by treatment with 86 nM insulin, 0.1 μM dexamethasone, and 250 μM methyl isobutylxanthine. Two days after induction, cells were switched to an inducing medium in the presence of recombinant RUCILPs, or commercial recombinant irisin (Sigma, #SRP8039-10UG and Phoenix pharmaceuticals, #067-29A), or phosphate buffered saline (PBS) for two days. Subsequently, cells were maintained in 86 nM insulin in the presence of indicated concentrations of recombinant RUCILPs, 21-AABP1, commercial recombinant irisin, or PBS for four days with medium change every other day for 6 days. Cells were then harvested for q-PCR analysis as described in standard protocol for gene expression analysis.
Total RNA from cells or tissues was extracted according to the instructions provided by manufacturer of RNeasy mini kit (Qiagen) using QIAzol lysis reagent (Qiagen), followed by measurements of RNA purities and concentrations by NanoDrop 2000 spectrophotometer (Thermo Scientific). A total of 1 μg of RNA was used for the reverse transcription to cDNA using the iScript™ Select cDNA Synthesis Kit (Bio-Rad Laboratories). The samples were subjected to real-time PCR using the LC480 system (Roche Diagnostics) after premixing with Precision®PLUS Master Mix (Primer Design). For each indicated gene, samples were run in duplicate in a 384-well plate and ΔΔCt method was used for quantifying the expressions after normalization to the housekeeping Rpl36 or GAPDH gene.
Firstly, we tested the dose-response effects of RUCILPs on gene expression in mouse fibroblasts (3T3-L1), mouse […] (MLO-Y4), and mouse myoblasts (C2C12). To estimate effect on adipocyte browning, we measured expression of Ucp1, Prdm16, Pgc1a, Dio2 and Cox2, and expression of AdipoQ was measured as a marker of white adipocytes. As a marker of bone formation, we measured expression of Sclerostin; and markers of myotube formation included expression of Heyl, Sox3, and Stat3.

fat cells = test: Cellular experiments with recombinant RUCILP2 summarised in Example 6 (fat and liver cells); format: cell-based

B1: RUCILP1: 88 amino acid FNIII domain polypeptide of RUMTOR_00181 from Ruminococcus torques (protein)
chain: APVDVKVSEVTETSAKVSWKNAADGKEAAGYNVYVDGTKVNEELIAETTYNVSSLKDGTTYSVEVTAVDAAGEESAKSEKVEFTTVKK
modifications: Ruminococcus torques
notes: 88 amino acid FNIII domain polypeptide of RUMTOR_00181 from Ruminococcus torques
sclerostin expression levels [1]: increase | Adiponectin expression (mouse 3T3-L1 fibroblasts): down-regulating | markers of adipocyte browning (Ucp1, Prdm16, Pgc1a, Dio2, Cox2) (mouse 3T3-L1 fibroblasts): up-regulate

B2: RUCILP2: 87 amino acid irisin-like polypeptide cleaved from the Ruminococcus torques FNDC5-like protein RUMTOR_00181; recombinant, 6-His-tagged from E. coli (protein)
chain: APVDVKVSEITETSAKASWKNAADGKEAAGYNVYVDGVKLNKELLTEASCGLTNLKAETTYFVEVTAVDAAGNESVKSEKVTFKTLK
modifications: 6-His tag; Ruminococcus torques
notes: 87 amino acid irisin-like polypeptide cleaved from the Ruminococcus torques FNDC5-like protein RUMTOR_00181; recombinant, 6-His-tagged from E. coli
sclerostin expression levels [1]: increase | sclerostin expression ([1]; MLO-Y4 cells, treated 16 hr): stimulates sclerostin expression | Adiponectin expression (mouse 3T3-L1 fibroblasts): down-regulating | markers of adipocyte browning (Ucp1, Prdm16, Pgc1a, Dio2, Cox2) (mouse 3T3-L1 fibroblasts): up-regulate | leptin expression in fat cells (fat cells): enhances | expression of genes regulating lipogenesis (fat cells; adipocytes and liver cells): inhibits expression

From patent publication US20240336661A1, “PEPTIDES DERIVED FROM RUMINOCOCCUS TORQUES” (University of Copenhagen, priority 2021, published 2024)
